{"source": "paper PMC5562738", "about": "“Structural basis for the broad substrate specificity of the human tyrosylprotein sulfotransferase-1” (Scientific Reports, 2017)", "key": {"[1]": {"molecular_target": "recombinant human TPST1 (Lys43-Lys341), as crystallised with PAP and C4P5Y5 (human) (UniProt O60507)"}, "[2]": {"molecular_target": "the molecule itself", "assay": "crystal structure; human TPST1 (2.5 mg/ml) with 2 mM PAP and 1 mM C4P5Y5, sitting-drop vapor diffusion at 20 °C, 0.1 M Tris-HCl pH 8.5; 1.6 Å"}, "[3]": {"molecular_target": "the molecule itself", "assay": "crystal structure; human TPST1 (5.0 mg/ml, His tag removed) with 2 mM PAP and 3 mM gastrin peptide, sitting-drop vapor diffusion at 20 °C, crystals soaked 1 d with 30 mM gastrin peptide; 2.3 Å"}}, "data": [{"molecule": "gastrin peptide", "values": [{"measurement": "K m of tyrosine sulfation of the peptide by human TPST1 ([35S]PAPS, TLC, 30 °C, pH 6.0)", "setting": "[1]", "result": 652, "unit": "µM"}]}, {"molecule": "recombinant human TPST1 (Lys43-Lys341), as crystallised with PAP and C4P5Y5 (enzyme, UniProt O60507 43-341, looked up, thrombin site after the His tag (pET15b); Ordered in the crystal: Tyr65-Pro338 and Ala64-Gly336; also called tyrosylprotein sulfotransferase-1; core domain of human TPST1; source: Origami (DE3) cells carrying pGro7 (GroEL, GroES), purified (Ni-NTA, Superdex 200)) KLESTRTTVRTGLDLKANKTFAYHKDMPLIFIGGVPRSGTTLMRAMLDAHPDIRCGEETRVIPRILALKQMWSRSSKEKIRLDEAGVTDEVLDSAMQAFLLEIIVKHGEPAPYLCNKDPFALKSLTYLSRLFPNAKFLLMVRDGRASVHSMISRKVTIAGFDLNSYRDCLTKWNRAIETMYNQCMEVGYKKCMLVHYEQLVLHPERWMRTLLKFLQIPWNHSVLHHEEMIGKAGGVSLSKVERSTDQVIKPVNVGALSKWVGKIPPDVLQDMAVIAPMLAKLGYDPYANPPNYGKPDPK", "values": [{"measurement": "stoichiometry N", "setting": "[2]", "result": 2}]}, {"molecule": "recombinant human TPST1 (Lys43-Lys341), His tag removed, as crystallised with PAP and the gastrin peptide (enzyme, UniProt O60507 43-341, looked up, also called tyrosylprotein sulfotransferase-1; protomer-1A; source: Origami (DE3) cells carrying pGro7 (GroEL, GroES), purified (Ni-NTA, Superdex 200), His tag removed with bovine thrombin; not shown: 6xHis, N-terminal, cleaved) KLESTRTTVRTGLDLKANKTFAYHKDMPLIFIGGVPRSGTTLMRAMLDAHPDIRCGEETRVIPRILALKQMWSRSSKEKIRLDEAGVTDEVLDSAMQAFLLEIIVKHGEPAPYLCNKDPFALKSLTYLSRLFPNAKFLLMVRDGRASVHSMISRKVTIAGFDLNSYRDCLTKWNRAIETMYNQCMEVGYKKCMLVHYEQLVLHPERWMRTLLKFLQIPWNHSVLHHEEMIGKAGGVSLSKVERSTDQVIKPVNVGALSKWVGKIPPDVLQDMAVIAPMLAKLGYDPYANPPNYGKPDPK", "values": [{"measurement": "stoichiometry N", "setting": "[3]", "result": 2}]}]}
